{"source": "patent US20090138983A1", "about": "(POSTECH FOUNDATION, published 2009)", "binders": {"B1": {"name": "HA-tagged AtBG1 (Arabidopsis thaliana β-glucosidase 1) (enzyme, UniProt Q9SE50 27-528, looked up)", "chain": "QGPVCGAGLPDKFSRLNFPEGFIWGTATAAFQVEGAVNEGCRGPSMWDTFTKKFPHRCENHNADVAVDFYHRYKEDIQLMKDLNTDAFRLSIAWPRIFPHGRMSKGISKVGVQFYHDLIDELLKNNIIPLVTVFHWDTPQDLEDEYGGFLSGRIVQDFTEYANFTFHEYGHKVKHWITFNEPWVFSRAGYDNGKKAPGRCSPYIPGYGQHCQDGRSGYEAYQVSHNLLLSHAYAVDAFRNCKQCAGGKIGIAHSPAWFEPQDLEHVGGSIERVLDFILGWHLAPTTYGDYPQSMKDRVGHRLPKFTEAEKKLLKGSTDYVGMNYYTSVFAKEISPDPKSPSWTTDSLVDWDSKSVDGYKIGSKPFNGKLDVYSKGLRYLLKYIKDNYGDPEVIIAENGYGEDLGEKHNDVNFGTQDHNRKYYIQRHLLSMHDAICKDKVNVTGYFVWSLMDNFEWQDGYKARFGLYYIDFQNNLTRHQKVSGKWYSEFLKPQFPTSKLREEL", "notes": "Expressed in Arabidopsis protoplasts or in 'rescued atbg1' plants and tested in protein extracts; also called AtBG1:HA; AtBG1::HA; not shown: virus HA (hemagglutinin) tag"}}, "key": {"[1]": {"target": "Q9SE50"}, "[2]": {"target": "T1, T7-tagged AtBG1 (Arabidopsis thaliana β-glucosidase 1) (Arabidopsis thaliana, UniProt Q9SE50 27-528)", "T1 construct": "Co-expressed with AtBG1:HA in protoplasts; pulled down with anti-T7 antibody; also called AtBG1:T7; not shown: T7 tag", "T1 sequence (looked up)": "B1 chain", "assay": "co-immunoprecipitation with anti-T7 antibody, anti-HA Western blot, densitometry", "method": "The present inventors also investigated the mechanism by which dehydration stress activates AtBG1. […] Thus, the present inventors investigated whether the mechanism by which dehydration stress activates AtBG1 is attributed to AtBG1 polymerization. Protein extracts were prepared from protoplasts co-transformed with two differently tagged forms of AtBG1, AtBG1:HA and AtBG1:T7, according to the same method as described in the above Example, and used for co-immunoprecipitation with anti-T7 antibody. Immunoprecipitates were analyzed by Western blotting using anti-HA antibody to investigate the interaction between AtBG1 molecules. As a result, HA-tagged AtBG1 was detected in the precipitate immunoprecipitated with T7-antibody (FIG. 35). Furthermore, the amount of HA-tagged AtBG1 in the precipitate was increased by approximately 3-fold upon treatment of protoplasts with 10% PEG 8000, a chemical that induces dehydration stress, for 12 hours (measured by densitometery software, FIG. 35). Therefore, the present inventors concluded that AtBG1 undergoes homomeric interactions, which are enhanced under conditions of dehydration stress."}}, "data": [{"binder": "B1", "values": [{"measurement": "ABA-GE hydrolyzing activity (ABA content by ELISA) of high against low molecular weight forms of AtBG1 after gel filtration and anti-HA immunoprecipitation", "setting": "[1]", "value": "High molecular weight forms exhibited 4-fold higher AtBG1 activity"}, {"measurement": "fold increase of the co-precipitated amount upon 10% PEG 8000 (12 hours) against untreated protoplasts", "setting": "[2]", "value": "~3", "unit": "fold"}]}]}
